Measured values from PMC5641120, “Small-molecule inhibitors of PD-1/PD-L1 immune checkpoint alleviate the PD-L1-induced exhaustion of T-cells” (Oncotarget, 2017).

Tested on: PD-1/sPD-L1
Experiment: PD-1/sPD-L1 effector assay (anti-CD3 activated ECs, luciferase)
Type: cell-based, human
Conditions: anti-CD3 with sPD-L1 (wt or mutein), 24 h, luciferase reporter
Procedure: To evaluate the potential of BMS compounds in abrogating the inhibitory effect of sPD-L1 on the activation of T cells, sPD-L1 was pre-incubated with tested compounds and presented to ECs together with the anti-CD3-activating antibody.
For the evaluation of the BMS impact on T cell inhibition by soluble PD-L1, the ECs were stimulated with the anti-CD3 antibody in the presence of the recombinant human sPD-L1. For this, the 96-well white flat bottom plates were coated overnight at 4°C with 5 μg/ml of the anti-CD3 antibody or the isotype control solution in PBS. […] Then, 15 μl of the solution was added to each well of the antibody-coated plate. ECs were centrifuged and diluted to 50 000 per ml, and 60 μl of the cell solution was added to each well. The final concentration of sPD-L1 was 10 μg/ml (0.6 μM). The final concentrations of the BMS compounds were: 0.12, 0.3, 1.2 and 3 μM, giving the following BMS:sPD-L1 molar ratios: 1:5, 1:2, 2:1 and 5:1. The cells were cultured for 24 h and the luciferase activity assay was performed using the Bio-Glo Luciferase Assay System (Promega) according to the manufacturer's instructions.

B1: sPD-L1: recombinant human soluble PD-L1 (residues 18–134, C-terminal His-tag) (protein)
chain: AFTVTVPKDLYVVEYGSNMTIECKFPVEKQLDLAALIVYWEMEDKNIIQFVHGEEDLKVQHSSYRQRARLLKDQLSLGNAALQITDVKLQDAGVYRCMISYGGADYKRITVKVNAPY
modifications: NTA-Atto 647 N fluorescent dye on the His-tag (flow cytometry only); uniform 15N labelling (NMR titration with compounds only); left off: His-tag, C-terminal, kept
**Q.** How did the “effect of soluble PD-L1 protein on anti-CD3 mediated activation of ECs” value turn out when B1 was run?
**A.** The value was “decreased reporter expression to about half”.
